Measurements as given in patent US20260258115A1 (MAPP BIOPHARMACEUTICAL, published 2026).

These binders were tested against RSV F on RSV-A2 virus (Respiratory syncytial virus (RSV-A2)) (assay: cell-based or functional assay).

| Binder | Neutralization IC50 (RSV subtype A) |
| --- | --- |
| ADI-41253 (antibody, V domains shown) VH: EVQLVQSGPGLVKPSETLSLTCTVSGDSISSSDYSYYWGWIRQPPGKGLEWIASLSYSGKTYSQSSLKSRVIISVDTSKKQFSLKLSSVTAADTAVYYCAVTRCYVCTSEGDSFDMWGQGTMVTVSS VL: DIVLTQTPGTLSLSPGERATLSCRASQSISGNYLAWYQHKPGQAPRLLIYGASTRATGIPDRFSGSGSGTDFPLTISRLEPEDFAVYYCQQYATSPYTFGQGTKVDIK | 0.03 µg/mL |
| ADI-41254 (antibody, V domains shown) VH: EVQLVESGGGLVQSGGSLRLSCAASGFTFSSYEMNWVRQAPGKGLEWVSYTTNNGRTIYYADSVKGRFTISRDNAKNSLFLQMNGLRAEDTAVYYCARGIQFSRVDYAMDVWGQGTTVTVSS VL: SYELTQPPSVSGTPGQRITISCSGSSSNIASNTVNWYQHLPGTAPKLLIYSDNQRPSGVPDRFSGSKSGTSASLAISGLQSEDEADYYCAIWDDSLNASYVFGTGTKLTVL | > 25 µg/mL |
| ADI-41255 (antibody, V domains shown) VH: EVQLVESGGGLVQPGGSLRISCAASGLTFSSYAMSWVRQAPGQGLEWVSSVSGSGVSTYYADSVKGRFTISRDNSKNTLYLQMNSLRAEDTAVYYCAKEDYYHFYMDVWGNGTTVTVSS VL: not shown | > 25 µg/mL |
| ADI-41256 (antibody, V domains shown) VH: QVQLVQSGAEVKSPGSSATVSCKASGGTFGSYGISWVRQAPGQGLEWIGAIMPMFGTTNYAQKFQGRVTMTADESTSTVYMDVSSLRPDDTAVYYCVRDVFYDILTGYYDADYYHHYMDVWGKGTTVTVSS VL: DIVMTQSPLSLPVTLGQPASISCRSGQSLVHSDGNTYLNWFQQRPGQSPRRLIYKVSNRGSGVPDRFSGSGSGTDFTLKISRVEAEDVGVYFCMQGTHWPRTFGQGTKVDIK | 0.02 µg/mL |
| ADI-41257 (antibody, V domains shown) VH: QVQLVESGAEVKKPGSSVKVSCKASEGTFSSYGISWVRQAPGQGPEWMGEINPMFGTAKYAQKFQGRVTITVDESTSTADMELSSLTSEDTAVYYCAREFLGQCSETNCPTPSRHLDYWGQGTLVTVSS VL: EIVMTQSPSSLSASVGDRVTITCRASRTISSYLNWYQQKPGKAPKLLIYATSNLQSGVPSRFSGSGSGADFTLTISSLQPEDFATYYCQQTYSTPGFGPGTKVDIK | > 25 µg/mL |
| ADI-41258 (antibody, V domains shown) VH: QVQLVQSGGGLVQRGGSLRLSCAASGFSFRSYAMSWVRQAPGKGLEWVSSISDSGDNTFYADSVKGRFSISRDNSRDTLYLQMNSLRAEDTAVYYCARGGYCSGGNCFPFDYWGQGTLVTVSS VL: SYELMQLPSVSVSPGQTARITCSGDALPKQYGYWYQQKPGQAPVLVIYKDSERPSGIPERFSGSSSGTTVTLTISGVQAEDEADYYCQSADSGGTYVMFGGGTKLTVL | > 25 µg/mL |
| ADI-41259 (antibody, V domains shown) VH: QVQLVESGGRLVKPGGSLRLSCAASGFTFSDFYMSWIRQAPGKGLEWVSYISSSGDDPNYADSVKGRFTISRDNSKNSLYLQMNSLRAEDTAVYYCARDEVGWNNLDYYFGMDVWGQGTTVTVSS VL: DIVMTQSPLSLPVTLGQPASISCRSSQSLVHSDGNTYLSWFHQRPGQSPRRLIYKVSNRDSGVPNRFSGGGSGTDFTLKISRVEAEDVGFFYCMQGTHWQKTFGQGTKVEIK | 0.02 µg/mL |
| ADI-41261 (antibody, V domains shown) VH: QVQLVQSGAEVKKPGSSVKVSCKASGGTFSSYGISWVRQAPGQGLEWMGGIIPMFGAANYAQKFQGRVTITAETSTSTAFMELSSLRSDDTAVYYCARIRWVPNWGGTATSFYNGMDVWGQGTTVTVSS VL: EIVMTQSPGTLSLSPGERATLSCRASQSVSSSYLAWYQQKPGQAPRLLIYGASSRATGIPDRFSGSGSGTDFTLTISRLEPEDFAVYYCQHYGSSLFTFGPGTKVDIK | > 25 µg/mL |
| ADI-41263 (antibody, V domains shown) VH: QVQLVQSGAEVKKPGASVKVYCKASGYTFTSHYIHWVRQAPGQGLEWMGRMNPSGGSPMYAQKFQERVTMTRDTSTSTAYMELRSLRSEDTAVYYCAMAKFYSFDYWGQGTLVTVSS VL: QSVLTQPHSVSESPGKTVTISCTRSSGSIASYFVHWYQQRPGSAPTIVIYEDNQRPSGVPDRFSGSIDSSSNSASLTISGLKTEDEADYYCQSYDSSNWVFGGGTKLTVL | > 25 µg/mL |
| ADI-41264 (antibody, V domains shown) VH: EVQLVESGGGLVKPGGSLRLSCAASGFTFSNTWMSWVRQAPGKGLEWVGHIKSKTDGGTTDYAAPVKGRFTISRDDSKSILNLHLNSLKTEDSAVYYCAALPPISGWYYTPGFWGQGTLVTVSS VL: SYELTQPPSMSVSPGQTARITCFGDAVPKKYVYWYQQKSGQAPVMVIYDDRRRPSGIPERFSGSSSGARATLTISGAQVEDEADYYCYSTDGSGNPSFGGGTKLTVL | > 25 µg/mL |
| ADI-41265 (antibody, V domains shown) VH: EVQLVQSGAEVKKPGESLTISCKDSGYSFTSYWIGWVRQVPGKGLEWMGIVYPGDSRYSPSFQGHVTMSADKSINTAYLQWSTLKASDTAMYYCAKVVTYGSAIRWFESWGQGTLVTVSS VL: QSVLTQPPSVSAAPGQKVSISCSGSSSNIGNNFVSWYQQVPGTAPKLLIIDNNKRPSGIPDRFSGSKSGTSATLGITGLQTGDEADYYCGTWDSRLSAEVFGGGTKLTVL | > 25 µg/mL |
| ADI-41266 (antibody, V domains shown) VH: QVQLQQSGPGLVKPSQTLSLTCAISGDSVSSNSAAWNWIRQSPSRGLEWLGRTYYRSKWYNDYAVSVKSRITINPDTSKNQFSLQLNSVTPEDTAVYYCARDLPQVDYFDGASFYFFDFWGQGTLVTVSS VL: QPVLTQPPSVSVAPGQTASITCGGNIIGNKGVHWYQQKPGRAPVLVVYDDSDRPSGIPERFSGSNSGNTATLTISRVEAADEADYYCQVWDTGSHPVVFGGGTKVTVL | > 25 µg/mL |
| ADI-41267 (antibody, V domains shown) VH: QVQLVQSGPGLVKPSGTLSLTCAVSGGSISTTHWWSWVRQPPGKGLEWIGEIYHSGSTNYNPSLKSRVTISVDKSRSQFSLKLTSVTAADTAVYYCARGDPLCSGGICYSGYFDYWGQGTLVTVSS VL: SYVLTQPPSVSVSPGQTATITCSGDKLGDQYACWYQQKSGQSPVLVIYRDNKRPSGIPERFSGSNSGNTATLTISETQAMDEADYYCQAWGSSSVVFGGGTKVTVL | > 25 µg/mL |
| ADI-41268 (antibody, V domains shown) VH: EVQLVESGGGLVKPGGSLRLSCVASGFGFTSYSMNWVRQAPGKGLEWVSSISASSTYIHYADSVKGRFTISRDNARNSLYLQMISLRADDTAVYYCSRDGPTYGSGVHVWGQGTMVTVSS VL: QSALIQPVSVSGSPGQSITISCTGTRSDVGGYNYVSWYQQHPGKAPKLMIYEVRNRPSGVSDRFSGSKSGNTASLTISGLQAEDEGDYYCSSYTSSDTLFYVFGSGTKLTVL | 0.177 µg/mL |
| ADI-41270 (antibody, V domains shown) VH: EVQLVESGGGVVQPGQSLRLSCAASGFTFSSFAMHWVRQAPGKGLEWVAVISYDGSNKYYADSVKGRFTISRDNSKNTLSLQVNSLRAEDTAVYYCARVSAEGSMGRFSDFNYWGLGTLVTVSS VL: QSALTQPASVSGSPGQSITISCTGTSSDVGSYNLVSWYQQHPGKAPKLMIYEVRKRPSGVSNRFSGSKSGNTASLTISGLQAEDEADYYCCSYAGSDTYVFGTGTKLTVL | > 25 µg/mL |
| ADI-41271 (antibody, V domains shown) VH: QVQLQESGPGLVKPSQTLSLTCAISGDSVSSNNAAWNWIRQSPSRGLEWLGRTYYRSKWYNDYAVSVKSRITINPDTSKNQLSLQLNSVTPEDTAVYYCARAGVRQWLVRGMDAFDIWGQGTMVTVSS VL: not shown | > 25 µg/mL |
| ADI-41273 (antibody, V domains shown) VH: EVQLLESGGDLVRPGGSLRLSCTASGFSFSSSEMNWVRQAPGKGLEWVASINSGGDDIYYADSVKGRFTISRDNAKNSLSLQMDSLRAEDTALYYCARSRSGYSSGWSRFFGNWGQGTLVTVSS VL: QSALTQPRSVSGSPGQSVTISCTGTISDIGAYNYVSWYQQHPGKAPKVMIYDVSKRPSGVPDRFSGSKSGFTASLTISGLQAEDEADYYCCSYAGRWVFGGGTKLTVL | > 25 µg/mL |
| ADI-41274 (antibody, V domains shown) VH: EVQLVESGGGLVKPGGSLRLSCAASGFSFSSYAMNWVRQAPGKGLQWVSSISAGSSYIDYADSVKGRFTISRDNAENSLFLQMNSLRVEDTAVYYCARVGSYTHGYEFDYWGQGTLVTVSS VL: QPVLTQPPSVSGAPGQRVTISCTGSNSNIGAGYDVHWYQQLPGTAPKLLIYASTIRPSGVPDRFSGSKSGTSASLAITGLQAEDEADYYCQSYDRNLSVVFGGGTKVTVL | 0.109 µg/mL |
| ADI-41275 (antibody, V domains shown) VH: EVQLVESGGGLVKPGGSLRLSCAASGFMFSTYSMNWVRQAPGKGLEWVSFITGSSSDKYYAHSVKGRFTISRDNAKRTLYLQLNSLRAEDTAVYYCARFRGLYCDGDCSSRGNTYYNYYGMDVWGQGTTVTVSS VL: EIVMTQSPLSLSVIPGEPASISCRSSKSLLHSNGYTYLDWYLQKPGQSPQLLIHLGSNRASGVPDRFSGSGSGTDFTLKISRVEAEDVGVFYCMQALQAPPTFGPGTKVEIK | > 25 µg/mL |
| ADI-41276 (antibody, V domains shown) VH: EVQLVESGGGLVQPGRSLRLSCRASGFTFRNYAMSWVRQAPGKGLEWVGFIRGKGYGGTTEYAASVKGRFTISSDDSRSIAYLQMNSLKTEDTAVYYCTRVREDGVIAVAEYYFDYWGQGTLVTVSS VL: not shown | > 25 µg/mL |
| ADI-41277 (antibody, V domains shown) VH: QVQLQESGPGLVKPSGTLSLTCAVSGGSITGRNWWSWVRQPPGKELERIGEIYHGGSTEYNPSLKGRVTISVDKSKNQFSLRLNSVTAADTAVYYCARVAHYDSNGYYIGYFDLWGRGTLVTVSS VL: EIVLTQSPPSLSASVGDRVTITCRASQSISIYLNWYQQKPGKAPKLLIFAASSLQSGVPLRFSGSGSGTDFTLTISSLQPEDFATYYCHQSYSAPWTFGQGTKVDIK | > 25 µg/mL |
| ADI-41278 (antibody, V domains shown) VH: EVQLVESGPALVKPTQTLTLTCTFSGFSLSTKRMGVSWIRQPPGKALEWLARIDWDDDKFYSTSLKTRLTISKDTSKNQVVLTLANMDPVDTATYFCARTTVYASGGYYLYYLDYWGQGTLVTVSS VL: DIVMTQTPSSLSASVGDRVTLTCRASQRIASYVNWYHQKPGKAPNLLIYAASNLQSGVPSRFSGSGSGTDFTLTISSLQPEDFATYYCQQSYSTPLTFGQGTKLEIK | > 25 µg/mL |
